One block for each binder: values may come before it.
Assays:
[1] = target: T1, P1 (human); assay: linear peptide array on glass (JPT)
T1 construct: linear 15-mer from the N-terminal coiled coil domain of human ANGPTL4
T1 peptide: GPVQSKSPRFASWDE
Procedure: (§1) The ability of selected antibodies of invention, namely NEG276 and NEG318, to bind to linear 15-amino-acid peptides derived from the N-terminal coiled coil domain of human ANGPTL4 was tested. The peptides were immobilized on a glass surface, and the ability of NEG276 and NEG318 to bind to the immobilized peptides was evaluated using experimental methods optimized for linear peptide epitope mapping at JPT Peptide Technologies (Berlin, Germany).

[2] = target: T2, P2 (human); assay: linear peptide array on glass (JPT)
T2 construct: linear 15-mer from the N-terminal coiled coil domain of human ANGPTL4
T2 peptide: QSKSPRFASWDEMNV
Procedure: as §1

[3] = target: T3, P3 (human); assay: linear peptide array on glass (JPT)
T3 construct: linear 15-mer from the N-terminal coiled coil domain of human ANGPTL4
T3 peptide: SPRFASWDEMNVLAH
Procedure: as §1

[4] = target: T4, P5 (human); assay: linear peptide array on glass (JPT)
T4 construct: linear 15-mer from the N-terminal coiled coil domain of human ANGPTL4
T4 peptide: WDEMNVLAHGLLQLG
Procedure: as §1

[5] = target: T5, P6 (human); assay: linear peptide array on glass (JPT)
T5 construct: linear 15-mer from the N-terminal coiled coil domain of human ANGPTL4
T5 peptide: MNVLAHGLLQLGQGL
Procedure: as §1

[6] = target: T6, P8 (human); assay: linear peptide array on glass (JPT)
T6 construct: linear 15-mer from the N-terminal coiled coil domain of human ANGPTL4
T6 peptide: GLLQLGQGLREHAER
Procedure: as §1

[7] = target: T7, P9 (human); assay: linear peptide array on glass (JPT)
T7 construct: linear 15-mer from the N-terminal coiled coil domain of human ANGPTL4
T7 peptide: QLGQGLREHAERTRS
Procedure: as §1

[8] = target: T8, P10 (human); assay: linear peptide array on glass (JPT)
T8 construct: linear 15-mer from the N-terminal coiled coil domain of human ANGPTL4
T8 peptide: QGLREHAERTRSQLS
Procedure: as §1

[9] = target: T9, P12 (human); assay: linear peptide array on glass (JPT)
T9 construct: linear 15-mer from the N-terminal coiled coil domain of human ANGPTL4
T9 peptide: AERTRSQLSALERRL
Procedure: as §1

[10] = target: T10, P13 (human); assay: linear peptide array on glass (JPT)
T10 construct: linear 15-mer from the N-terminal coiled coil domain of human ANGPTL4; printed with Ser where ANGPTL4 has Cys
T10 peptide: TRSQLSALERRLSAS
Procedure: as §1

[11] = target: T11, P14 (human); assay: linear peptide array on glass (JPT)
T11 construct: linear 15-mer from the N-terminal coiled coil domain of human ANGPTL4; printed with Ser where ANGPTL4 has Cys
T11 peptide: QLSALERRLSASGSA
Procedure: as §1

[12] = target: T12, P16 (human); assay: linear peptide array on glass (JPT)
T12 construct: linear 15-mer from the N-terminal coiled coil domain of human ANGPTL4; printed with Ser where ANGPTL4 has Cys
T12 peptide: RRLSASGSASQGTEG
Procedure: as §1

[13] = target: T13, P18 (human); assay: linear peptide array on glass (JPT)
T13 construct: linear 15-mer from the N-terminal coiled coil domain of human ANGPTL4; printed with Ser where ANGPTL4 has Cys
T13 peptide: GSASQGTEGSTDLPL
Procedure: as §1

[14] = target: T14, P19 (human); assay: linear peptide array on glass (JPT)
T14 construct: linear 15-mer from the N-terminal coiled coil domain of human ANGPTL4; printed with Ser where ANGPTL4 has Cys
T14 peptide: SQGTEGSTDLPLAPE
Procedure: as §1

[15] = target: T15, P20 (human); assay: linear peptide array on glass (JPT)
T15 construct: linear 15-mer from the N-terminal coiled coil domain of human ANGPTL4
T15 peptide: TEGSTDLPLAPESRV
Procedure: as §1

[16] = target: T16, P22 (human); assay: linear peptide array on glass (JPT)
T16 construct: linear 15-mer from the N-terminal coiled coil domain of human ANGPTL4
T16 peptide: LPLAPESRVDPEVLH
Procedure: as §1

[17] = target: T17, P23 (human); assay: linear peptide array on glass (JPT)
T17 construct: linear 15-mer from the N-terminal coiled coil domain of human ANGPTL4
T17 peptide: APESRVDPEVLHSLQ
Procedure: as §1

[18] = target: T18, P24 (human); assay: linear peptide array on glass (JPT)
T18 construct: linear 15-mer from the N-terminal coiled coil domain of human ANGPTL4
T18 peptide: SRVDPEVLHSLQTQL
Procedure: as §1

[19] = target: T19, P25 (human); assay: linear peptide array on glass (JPT)
T19 construct: linear 15-mer from the N-terminal coiled coil domain of human ANGPTL4
T19 peptide: DPEVLHSLQTQLKAQ
Procedure: as §1

[20] = target: T20, P27 (human); assay: linear peptide array on glass (JPT)
T20 construct: linear 15-mer from the N-terminal coiled coil domain of human ANGPTL4
T20 peptide: SLQTQLKAQNSRIQQ
Procedure: as §1

[21] = target: T21, P28 (human); assay: linear peptide array on glass (JPT)
T21 construct: linear 15-mer from the N-terminal coiled coil domain of human ANGPTL4
T21 peptide: TQLKAQNSRIQQLFH
Procedure: as §1

[22] = target: T22, P29 (human); assay: linear peptide array on glass (JPT)
T22 construct: linear 15-mer from the N-terminal coiled coil domain of human ANGPTL4
T22 peptide: KAQNSRIQQLFHKVA
Procedure: as §1

[23] = target: T23, P31 (human); assay: linear peptide array on glass (JPT)
T23 construct: linear 15-mer from the N-terminal coiled coil domain of human ANGPTL4
T23 peptide: IQQLFHKVAQQQRHL
Procedure: as §1

[24] = target: T24, P32 (human); assay: linear peptide array on glass (JPT)
T24 construct: linear 15-mer from the N-terminal coiled coil domain of human ANGPTL4
T24 peptide: LFHKVAQQQRHLEKQ
Procedure: as §1

[25] = target: T25, P33 (human); assay: linear peptide array on glass (JPT)
T25 construct: linear 15-mer from the N-terminal coiled coil domain of human ANGPTL4
T25 peptide: KVAQQQRHLEKQHLR
Procedure: as §1

[26] = target: T26, P35 (human); assay: linear peptide array on glass (JPT)
T26 construct: linear 15-mer from the N-terminal coiled coil domain of human ANGPTL4
T26 peptide: RHLEKQHLRIQHLQS
Procedure: as §1

[27] = target: T27, P36 (human); assay: linear peptide array on glass (JPT)
T27 construct: linear 15-mer from the N-terminal coiled coil domain of human ANGPTL4
T27 peptide: EKQHLRIQHLQSQFG
Procedure: as §1

[28] = target: T28, P37 (human); assay: linear peptide array on glass (JPT)
T28 construct: linear 15-mer from the N-terminal coiled coil domain of human ANGPTL4
T28 peptide: HLRIQHLQSQFGLLD
Procedure: as §1

[29] = target: T29, P39 (human); assay: linear peptide array on glass (JPT)
T29 construct: linear 15-mer from the N-terminal coiled coil domain of human ANGPTL4
T29 peptide: LQSQFGLLDHKHLDH
Procedure: as §1

[30] = target: T30, P40 (human); assay: linear peptide array on glass (JPT)
T30 construct: linear 15-mer from the N-terminal coiled coil domain of human ANGPTL4
T30 peptide: QFGLLDHKHLDHEVA
Procedure: as §1

[31] = target: T31, P41 (human); assay: linear peptide array on glass (JPT)
T31 construct: linear 15-mer from the N-terminal coiled coil domain of human ANGPTL4
T31 peptide: LLDHKHLDHEVAKPA
Procedure: as §1

[32] = target: T32, P42 (human); assay: linear peptide array on glass (JPT)
T32 construct: linear 15-mer from the N-terminal coiled coil domain of human ANGPTL4
T32 peptide: HKHLDHEVAKPARRK
Procedure: as §1

[33] = target: T33, Cynomolgus monkey ANGPTL4(26-406)-FLAG-His6-Avi (cynomolgus monkey, biotin on the C-terminal Avi tag (BirA) where the protein is immobilised); assay: Octet (ForteBio) kinetics, biotinylated antigen on streptavidin sensor, IgG in solution; slower than the limit of detection
T33 construct: also called Cyno ANGPTL4 (26-406)
T33 chain: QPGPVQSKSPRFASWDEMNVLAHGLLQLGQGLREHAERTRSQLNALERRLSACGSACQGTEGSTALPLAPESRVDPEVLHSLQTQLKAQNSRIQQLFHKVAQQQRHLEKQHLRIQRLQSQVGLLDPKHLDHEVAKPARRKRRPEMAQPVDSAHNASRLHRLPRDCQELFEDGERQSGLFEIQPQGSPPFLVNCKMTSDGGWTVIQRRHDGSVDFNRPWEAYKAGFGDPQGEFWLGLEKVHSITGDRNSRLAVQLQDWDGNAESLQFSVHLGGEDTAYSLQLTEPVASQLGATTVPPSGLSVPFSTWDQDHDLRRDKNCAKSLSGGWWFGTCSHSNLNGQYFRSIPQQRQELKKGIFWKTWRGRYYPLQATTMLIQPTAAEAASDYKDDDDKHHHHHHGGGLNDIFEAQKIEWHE

binding result [1]: no binding | binding result [2]: no binding | binding result [3]: no binding | binding result [4]: no binding | binding result [5]: no binding | binding result [6]: no binding | binding result [7]: no binding | binding result [8]: no binding | binding result [9]: no binding | binding result [10]: no binding | binding result [11]: no binding | binding result [12]: no binding | binding result [13]: no binding | binding result [14]: no binding | binding result [15]: no binding | binding result [16]: no binding | binding result [17]: no binding | binding result [18]: no binding | binding result [19]: no binding | binding result [20]: no binding | binding result [21]: no binding | binding result [22]: no binding | binding result [23]: no binding | binding result [24]: no binding | binding result [25]: no binding | binding result [26]: no binding | binding result [27]: no binding | binding result [28]: no binding | binding result [29]: no binding | binding result [30]: no binding | binding result [31]: no binding | binding result [32]: no binding
B1: NEG276 (antibody, human IgG1, kappa)
heavy: not shown
light: EIVMTQSPATLSVSPGERATLSCKASQDIGSNLNWLQQKPGQAPRRLIYAVSNRGPGIPARFSGSRSGSEYTLTISSLQSEDFAVYYCLQYASSPWTFGQGTKVEIKRTVAAPSVFIFPPSDEQLKSGTASVVCLLNNFYPREAKVQWKVDNALQSGNSQESVTEQDSKDSTYSLSSTLTLSKADYEKHKVYACEVTHQGLSSPVTKSFNRGEC
notes: humanized, hIgG1/kappa, parental antibody 19C16

koff [33]: 4.1e-06 s⁻¹
B2: NEG276-LALA (antibody, human IgG1, kappa, L234A L235A)
heavy: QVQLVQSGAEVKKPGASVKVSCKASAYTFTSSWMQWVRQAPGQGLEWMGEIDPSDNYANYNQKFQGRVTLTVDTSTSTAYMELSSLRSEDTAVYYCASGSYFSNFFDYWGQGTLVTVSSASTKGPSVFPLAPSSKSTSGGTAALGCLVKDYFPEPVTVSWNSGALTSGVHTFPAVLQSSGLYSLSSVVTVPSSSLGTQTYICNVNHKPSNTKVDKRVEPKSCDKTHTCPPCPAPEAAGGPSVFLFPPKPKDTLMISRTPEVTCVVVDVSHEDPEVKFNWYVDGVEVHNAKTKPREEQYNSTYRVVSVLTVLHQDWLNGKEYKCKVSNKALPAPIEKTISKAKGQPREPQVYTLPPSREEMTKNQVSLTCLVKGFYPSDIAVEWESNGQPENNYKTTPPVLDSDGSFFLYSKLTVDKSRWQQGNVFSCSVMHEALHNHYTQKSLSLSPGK
light: B1 light

binding result [1]: no binding | binding result [2]: no binding | binding result [3]: no binding | binding result [4]: no binding | binding result [5]: no binding | binding result [6]: no binding | binding result [7]: no binding | binding result [8]: no binding | binding result [9]: no binding | binding result [10]: no binding | binding result [11]: no binding | binding result [12]: no binding | binding result [13]: no binding | binding result [14]: no binding | binding result [15]: no binding | binding result [16]: no binding | binding result [17]: no binding | binding result [18]: no binding | binding result [19]: no binding | binding result [20]: no binding | binding result [21]: no binding | binding result [22]: no binding | binding result [23]: no binding | binding result [24]: no binding | binding result [25]: no binding | binding result [26]: no binding | binding result [27]: no binding | binding result [28]: no binding | binding result [29]: no binding | binding result [30]: no binding | binding result [31]: no binding | binding result [32]: no binding
B3: NEG318 (antibody, human IgG1, kappa, V domains shown)
VH: QVQLVQSGAEVKKPGASVKVSCKASGYTFTSFWITWVRQAPGQGLEWMGDIYPGGATTNYNEKLQGRVTLTVDTSTSTAYMELRSLRSDDTAVYYCARSPPQVGPFDYWGQGTLVTVSS
VL: DIQMTQSPSSLSASVGDRVTITCQASDYIYHWLAWYQQKPGKAPKLLISGASSLETGVPSRFSGSGSGKDYTFTISSLQPEDIATYYCQQYWSIPWTFGQGTKLEIKR
notes: humanized, hIgG1/kappa, parental antibody 14P18

— patent publication US20220213181A1 (Novartis, published 2022)
